The values below come from patent US7037662 (dated 2006).

The labels stand for the following.
B8: soluble HEK (sHEK), complete extracellular domain (exodomain) of HEK encoded by exons I-VII (receptor, human, UniProt P29320 21-541, looked up)
chain: ELIPQPSNEVNLLDSKTIQGELGWISYPSHGWEEISGVDEHYTPIRTYQVCNVMDHSQNNWLRTNWVPRNSAQKIYVELKFTLRDCNSIPLVLGTCKETFNLYYMESDDDHGVKFREHQFTKIDTIAADESFTQMDLGDRILKLNTEIREVGPVNKKGFYLAFQDVGACVALVSVRVYFKKCPFTVKNLAMFPDTVPMDSQSLVEVRGSCVNNSKEEDPPRMYCSTEGEWLVPIGKCSCNAGYEERGFMCQACRPGFYKALDGNMKCAKCPPHSSTQEDGSMNCRCENNYFRADKDPPSMACTRPPSSPRNVISNINETSVILDWSWPLDTGGRKDVTFNIICKKCGWNIKQCEPCSPNVRFLPRQFGLTNTTVTVTDLLAHTNYTFEIDAVNGVSELSSPPRQFAAVSITTNQAAPSPVLTIKKDRTSRNSISLSWQEPEHPNGIILDYEVKYYEKQEQETSYTILRARGTNVTISSLKPDTIYVFQIRARTAAGYGTNSRKFEFETSPDSFSISGESSQ
notes: extracellular domain; Untagged soluble exodomain from CHO cells; also called HEK exodomain

Test [1] deals with B8. As to the kind of experiment: BIAcore, apparent KD from equilibrium responses, LERK-Fc over immobilised HEK. As to the method: (§1) Figure 2C: FIG. 2C: Expression of soluble HEK (sHEK) polypeptides encoded by the constructs shown in B. sHEK in lane 1 corresponds to the complete extracellular domain (exodomain) of HEK encoded by exons I–VII. […] Samples (50 μl) of purified fusion proteins comprising the human Fc domain and either LERK 1, 2, 3, 4, 5 and 7 at 10 μg/ml in BIAcore running buffer were applied onto an sHEK-derivatised sensor chip. The responses were recorded 20 s after completion of the injection phase and are shown as relative BIAcore response units, (RU) compared to the response of an equal amount of human Fc domain used as a control in this experiment.
(§2) Receptor-ligand interactions within the Eph family RTKs has mainly been studied by modified indirect Scatchard analysis of human IgG-Fc fusion proteins of ligands or receptors binding to receptor or ligand transfected cells, respectively (Beckmann et al., 1994, supra; Davis et al., 1994, supra; Ceretti et al., 1995, supra: Bennett et at., 1995). To evaluate if BIAcore analysis also detected the interaction of various LERKs with HEK, we compared the binding of bivalent, Fc-fusion proteins of LERK (LERKS 1 to 5) and LERK 7 (FIG. 2C) to sensor chip-immobilised HEK exodomain. Each ligand sample was injected at concentrations between 0.1–10 µg/ml (approximately 0.8 to 80 nM) across the sensor chip. A sample containing 10 µg/ml of the recombinant Human Fc fragment was used as a control.

In test [2] the target is B8. As to the kind of experiment: BIAcore, LERK-FLAG over HEK sensor chip; reference LERK 7-FLAG. In general terms: SPR reads the build-up and loss of mass on a sensor chip optically.
Test [3] concerns the target B8. Nature of the test: BIAcore, LERK 3-FLAG over immobilised sHEK, single component model. As to the method:
(§3) The binding of various HEK constructs and derived peptides was analysed on the BIAcore optical biosensor (Pharmacia Biosensor, Sweden) using purified soluble HEK (corresponding to the entire extracellular domain) or LERK 7-FLAG derivatised CM 5 sensor chips and the interaction kinetics determined. The immobilization of HEK onto the sensor chip surface was performed essentially as described by Lackmann et al, 1996. LERK7-FLAG (47 μg/ml in 20 mM sodium acetate, pH 4.5) was coupled at 5 μl/min onto N-hydroxysuccinimide (NHS, 0.05 M)/N-hydroxysuccinimide-N-ethyl-N'-([…]) carbodiimide(EDC, 0.2 M) activated sensor chips (45 μl, 2 μl/min) to yield an increase in the response level of 2500–3000 response units (RU).
(§4) Figures 5A, 5B: FIG. 5: Binding curves for the interaction of monovalent LERK-FLAG fusion proteins with immobilised sHEK. Homogeneous preparations of CHO cell-derived LERK 3-FLAG (panel A) or LERK 7-FLAG (panel B) at increasing concentrations (8.22, 16.44, 32.88, 65.75, 131.5, 263, 526 nM) of LERK3-FLAG, and (1.25, 2.5, 5, 10, 20, 40, 80 nM) LERK7-FLAG were injected across an sHEK-derivatised sensor surface. BIAcore data for the association and dissociation phases were used to estimate corresponding kinetic rate constants on the basis of a one-to-one interaction model. (panel C). […]

For test [4], the target named is B8. Nature of the test: BIAcore, apparent KD from kinetic rate constants, immobilised sHEK. As to the method: as §3, §4
Test [5] deals with T1, LERK 7-FLAG (monovalent LERK7/AL-1 with N-terminal FLAG peptide) (human, UniProt P52803 21-203, limits assumed).
T1 construct: domain: mature protein stopped before the hydrophobic tail; also called soluble LERK7
T1 sequence (looked up): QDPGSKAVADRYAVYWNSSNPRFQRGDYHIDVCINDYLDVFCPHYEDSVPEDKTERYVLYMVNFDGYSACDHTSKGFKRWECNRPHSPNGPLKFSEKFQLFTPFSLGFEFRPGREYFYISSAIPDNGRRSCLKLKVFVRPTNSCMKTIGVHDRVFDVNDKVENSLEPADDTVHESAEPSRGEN
Nature of the test: BIAcore in-solution competition; 40 nM LERK 7 with increasing competitor injected onto an sHEK-derivatised sensor chip; residual response as % of the response without competitor. As to the method: as §3
Figure 2F: FIG. 2F: Samples containing 40 nM LERK 7 and 1 nM—10 μM synthetic peptide encoded by exons I and II of the HEK gene (Δ), 10 nM—1 μM HEK I–VII (o), 10 nM—1 μM HEK IV–VII (x) or 1 nM—1 μM HEK I-III (□) were injected onto an sHEK-derivatised sensor chip. The residual responses are illustrated as percentage of the total response in the absence of competitor.

In test [6] the target is T2, recombinant Human Fc fragment (control) (human, UniProt P01857-1 99-330 = IgG part, limits assumed).
T2 construct: domain: Fc fragment; also called human Fc domain; control recombinant Fc construct
Nature of the test: BIAcore; human Fc domain at 10 µg/ml (50 µl) on an sHEK-derivatised sensor chip; response 20 s after the end of the injection. On the procedure:
as §1
as §2, with “A sample containing 10 µg/ml of the recombinant Human Fc fragment was used as a control.” left out

B1: LERK 5-Fc fusion protein (Fc fusion, UniProt P52799 28-229, looked up)
chain: IVLEPIYWNSSNSKFLPGQGLVLYPQIGDKLDIICPKVDSKTVGQYEYYKVYMVDKDQADRCTIKKENTPLLNCAKPDQDIKFTIKFQEFSPNLWGLEFQKNKDYYIISTSNGSLEGLDNQEGGVCQTRAMKILMKVGQDASSAGSTRNKDPTRRPELEAGTNGRSSTTSPFVKPNPGSSTDGNSAGHSGNNILGSEVALFA
notes: not shown: human Fc domain
Turning to B1, the Kd in test [1] came to 24 nM.

B2: LERK 4-Fc fusion protein (Fc fusion, UniProt P52798 26-170, looked up)
chain: LRHVVYWNSSNPRLLRGDAVVELGLNDYLDIVCPHYEGPGPPEGPETFALYMVDWPGYESCQAEGPRAYKRWVCSLPFGHVQFSEKIQRFTPFSLGFEFLPGETYYYISVPTPESSGQCLRLQVSVCCKERKSESAHPVGSPGES
notes: not shown: human Fc domain
For the molecule B2, the Kd in test [1] was determined as 6 nM.

B3: LERK 3-FLAG (monovalent FLAG-tagged LERK 3) (ligand, UniProt P52797 23-214, looked up, not shown: small tags and cut ends)
chain: QGPGGALGNRHAVYWNSSNQHLRREGYTVQVNVNDYLDIYCPHYNSSGVGPGAGPGPGGGAEQYVLYMVSRNGYRTCNASQGFKRWECNRPHAPHSPIKFSEKFQRYSAFSLGYEFHAGHEYYYISTPTHNLHWKCLRMKVFVCCASTSHSGEKPVPTLPQFTMGPNVKINVLEDFEGENPQVPKLEKSISG
notes: CHO cell-derived
Regarding B3, the “fold higher concentration needed for a response comparable to LERK7” value in test [2] was about 30 fold. Moreover, in test [3], the off-rate (koff) is 0.26 s⁻¹ and the kon amounted to 370000 M⁻¹ s⁻¹. Moreover, the Kd in test [4] was 590 nM.

B4: LERK 3-Fc fusion protein (Fc fusion, UniProt P52797 23-214, looked up)
chain: QGPGGALGNRHAVYWNSSNQHLRREGYTVQVNVNDYLDIYCPHYNSSGVGPGAGPGPGGGAEQYVLYMVSRNGYRTCNASQGFKRWECNRPHAPHSPIKFSEKFQRYSAFSLGYEFHAGHEYYYISTPTHNLHWKCLRMKVFVCCASTSHSGEKPVPTLPQFTMGPNVKINVLEDFEGENPQVPKLEKSISG
notes: not shown: human Fc domain
For B4, the Kd in test [1] was found to be 5 nM.

B5: HEK I-III (FLAG-tagged HEK subdomain construct, exons I-III) (receptor, not shown: small tags and cut ends)
chain: ELIPQPSNEVNLLDSKTIQGELGWISYPSHGWEEISGVDEHYTPIRTYQVCNVMDHSQNNWLRTNWVPRNSAQKIYVELKFTLRDCNSIPLVLGTCKETFNLYYMESDDDHGVKFREHQFTKIDTIAADESFTQMDLGDRILKLNTEIREVGPVNKKGFYLAFQDVGACVALVSVRVYFKKCPFTVKNLAMFPDTVPMDSQSLVEVRGSCVNNSKEEDPPRMYCSTEGEWLVPIGKCSCNAGYEERGFMCQ
notes: Native signal peptide (residues 1-20) replaced by IL3 signal and FLAG
On to B5, for which the “IC50 (read off the curve)” value in test [5] was about 70 nM.

B6: LERK7-Fc fusion protein (Fc fusion, UniProt P52803 21-203, looked up)
chain: QDPGSKAVADRYAVYWNSSNPRFQRGDYHIDVCINDYLDVFCPHYEDSVPEDKTERYVLYMVNFDGYSACDHTSKGFKRWECNRPHSPNGPLKFSEKFQLFTPFSLGFEFRPGREYFYISSAIPDNGRRSCLKLKVFVRPTNSCMKTIGVHDRVFDVNDKVENSLEPADDTVHESAEPSRGEN
notes: not shown: Fc and hinge regions of human IgG1
In the case of B6, the Kd in test [1] worked out at 3 nM.

B7: HEK I-VII (N-terminally FLAG-tagged HEK exodomain, exons I-VII) (receptor, human, UniProt P29320 21-541, looked up, not shown: small tags and cut ends)
chain: ELIPQPSNEVNLLDSKTIQGELGWISYPSHGWEEISGVDEHYTPIRTYQVCNVMDHSQNNWLRTNWVPRNSAQKIYVELKFTLRDCNSIPLVLGTCKETFNLYYMESDDDHGVKFREHQFTKIDTIAADESFTQMDLGDRILKLNTEIREVGPVNKKGFYLAFQDVGACVALVSVRVYFKKCPFTVKNLAMFPDTVPMDSQSLVEVRGSCVNNSKEEDPPRMYCSTEGEWLVPIGKCSCNAGYEERGFMCQACRPGFYKALDGNMKCAKCPPHSSTQEDGSMNCRCENNYFRADKDPPSMACTRPPSSPRNVISNINETSVILDWSWPLDTGGRKDVTFNIICKKCGWNIKQCEPCSPNVRFLPRQFGLTNTTVTVTDLLAHTNYTFEIDAVNGVSELSSPPRQFAAVSITTNQAAPSPVLTIKKDRTSRNSISLSWQEPEHPNGIILDYEVKYYEKQEQETSYTILRARGTNVTISSLKPDTIYVFQIRARTAAGYGTNSRKFEFETSPDSFSISGESSQ
notes: extracellular domain; CHO cell product; in the zebrafish experiments expressed from injected mRNA; also called HEK-FLAG
For B7, in test [5], the “IC50 (read off the curve)” value was about 90 nM.

Turning to B8, in test [6], the binding result is “no binding (tested: 10 µg/ml)”.

As a reminder, the koff is the first-order rate constant of dissociation. For orientation: kon means a measure of how fast the partners come together. A lower kon goes with slower complex formation.
